Test results reported in patent publication US20210069244A1.

Target: CD19 antigen on CD19 positive RS4;11 and Raji cells (human) (UniProt P15391)
Assay: cell-based or functional assay

Chain of UniProt P15391 (P15391 20-556): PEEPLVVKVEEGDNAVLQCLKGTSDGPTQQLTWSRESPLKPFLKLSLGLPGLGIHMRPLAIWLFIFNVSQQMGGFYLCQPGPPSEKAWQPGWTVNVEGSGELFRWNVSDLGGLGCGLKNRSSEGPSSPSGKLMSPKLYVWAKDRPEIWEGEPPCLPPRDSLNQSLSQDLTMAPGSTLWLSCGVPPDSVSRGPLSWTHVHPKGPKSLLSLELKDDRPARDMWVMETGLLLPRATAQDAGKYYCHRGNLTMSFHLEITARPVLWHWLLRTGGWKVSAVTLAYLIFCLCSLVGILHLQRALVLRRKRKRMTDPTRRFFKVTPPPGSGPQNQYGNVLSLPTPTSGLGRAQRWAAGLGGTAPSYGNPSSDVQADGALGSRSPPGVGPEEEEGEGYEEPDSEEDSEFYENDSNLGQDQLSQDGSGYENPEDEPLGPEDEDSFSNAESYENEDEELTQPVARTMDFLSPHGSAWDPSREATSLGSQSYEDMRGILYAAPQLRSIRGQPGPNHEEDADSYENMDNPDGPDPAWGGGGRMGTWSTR

- percentage of CD19 positive RS4;11 cells remaining after 24 h co-culture with CAR-T cells: 45.1%
- percentage of CD19 positive Raji cells remaining after 24 h co-culture with CAR-T cells: 7.42%
Substance: FMC63 artificial CAR19
- cytotoxicity, RS4;11 cells, CAR19 T cell:tumor cell 5:1, donor 1, 4 h co-culture (calcein AM/PI flow cytometry): 45.8%
- cytotoxicity, RS4;11 cells, CAR19 T cell:tumor cell 5:1, donor 2, 4 h co-culture (calcein AM/PI flow cytometry): 65.6%
- cytotoxicity, RS4;11 cells, CAR19 T cell:tumor cell 10:1, donor 1, 4 h co-culture (calcein AM/PI flow cytometry): 55.8%
- cytotoxicity, RS4;11 cells, CAR19 T cell:tumor cell 10:1, donor 2, 4 h co-culture (calcein AM/PI flow cytometry): 77.1%
- cytotoxicity, Raji cells, CAR19 T cell:tumor cell 1:1, donor 1, 4 h co-culture (calcein AM/PI flow cytometry): 4.17%
- cytotoxicity, Raji cells, CAR19 T cell:tumor cell 1:1, donor 2, 4 h co-culture (calcein AM/PI flow cytometry): 46.4%
- cytotoxicity, Raji cells, CAR19 T cell:tumor cell 2:1, donor 1, 4 h co-culture (calcein AM/PI flow cytometry): 25.3%
- cytotoxicity, Raji cells, CAR19 T cell:tumor cell 2:1, donor 2, 4 h co-culture (calcein AM/PI flow cytometry): 59.9%
